For assay [1], the target named is NHR peptide N46 (aa 536-581 of NHR) (HIV-1) (UniProt P04578). Briefly: ELISA; inhibition of 6-HB formation between N46 and C34.
The target in assay [2] is gp41 N126K (T2635-resistant HIV-1 strain) (HIV-1).
For assay [3], the target named is gp41 of the wild-type virus of the T2635-resistant panel (HIV-1).
In assay [4] the target is gp41 H3C (T2635-resistant HIV-1 strain) (HIV-1).
For assay [5], the target named is gp41 Q66R/N113E (T2635-resistant HIV-1 strain) (HIV-1).
Assay [6] concerns the target gp41 A6V (T2635-resistant HIV-1 strain) (HIV-1).
Assay [7] concerns the target gp41 K90E/N126K (T2635-resistant HIV-1 strain) (HIV-1).
Assay [8] has as its target gp41 Q79E (T2635-resistant HIV-1 strain) (HIV-1).
Assay [9] concerns the target gp41 K90E (T2635-resistant HIV-1 strain) (HIV-1).
For assay [10], the target named is gp41 Q66R (T2635-resistant HIV-1 strain) (HIV-1).
For assay [11], the target named is gp41 Q79E/N126K (T2635-resistant HIV-1 strain) (HIV-1).
In assay [12] the target is gp41 N113E (T2635-resistant HIV-1 strain) (HIV-1).
Assay [13] concerns the target gp41 K154Q (T2635-resistant HIV-1 strain) (HIV-1).
In assay [14] the target is NHR peptide N46 (aa 536-581 of NHR) (HIV-1) (UniProt P04578). The assay is described as follows: thermal denaturation followed by circular dichroism.
The target of assay [15] is gp41 L34S/D36G/E49K/E136G (HP23-resistant HIV-1 strain) (HIV-1).
Assay [16] deals with gp41 D36G/E49K/N126K (HP23-resistant HIV-1 strain) (HIV-1).
For assay [17], the target named is gp41 V38A (T20-resistant HIV-1 strain) (HIV-1).
Assay [18] deals with gp41 E49K (HP23-resistant HIV-1 strain) (HIV-1).
Assay [19] concerns the target gp41 E49K/N126K (HP23-resistant HIV-1 strain) (HIV-1).
The target in assay [20] is gp41 of the wild-type virus of the HP23-resistant panel (HIV-1).
In assay [21] the target is gp41 of the WT virus of the T20-resistant panel (HIV-1).
The target in assay [22] is gp41 V38E, N42S (T20-resistant HIV-1 strain) (HIV-1).
Assay [23] addresses gp41 V38A, N42D (T20-resistant HIV-1 strain) (HIV-1).
Assay [24] deals with gp41 V38A, N42T (T20-resistant HIV-1 strain) (HIV-1).

Some results are limits rather than exact numbers.

NHR peptide N46 (aa 536-581 of NHR) (HIV-1), sequence (P04578 536-581): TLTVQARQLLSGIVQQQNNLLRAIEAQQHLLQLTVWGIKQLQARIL

The substance HP23 showed an IC50 in assay [1] of 3720 nM.

Substance HP23 (peptide) showed an IC50, inhibition of HIV-1 infection (p24 ELISA), T2635-resistant panel, virus N126K; blocks gp41 NHR-CHR 6-HB formation in assay [2] of 8.6 nM. The substance also gave an IC50, inhibition of HIV-1 infection (p24 ELISA), T2635-resistant panel, virus wild-type; blocks gp41 NHR-CHR 6-HB formation in [3] of 2.8 nM. This substance also had an IC50, inhibition of HIV-1 infection (p24 ELISA), T2635-resistant panel, virus H3C; blocks gp41 NHR-CHR 6-HB formation in [4] of 5.4 nM. For the same substance, the IC50, inhibition of HIV-1 infection (p24 ELISA), T2635-resistant panel, virus Q66R/N113E; blocks gp41 NHR-CHR 6-HB formation in [5] came to 3.6 nM. Moreover, in [6], the IC50, inhibition of HIV-1 infection (p24 ELISA), T2635-resistant panel, virus A6V; blocks gp41 NHR-CHR 6-HB formation stood at 1.6 nM. Besides, the IC50, inhibition of HIV-1 infection (p24 ELISA), T2635-resistant panel, virus K90E/N126K; blocks gp41 NHR-CHR 6-HB formation in assay [7] stood at 4.2 nM. In assay [8], this substance had an IC50, inhibition of HIV-1 infection (p24 ELISA), T2635-resistant panel, virus Q79E; blocks gp41 NHR-CHR 6-HB formation of 4.2 nM. The substance also showed an IC50, inhibition of HIV-1 infection (p24 ELISA), T2635-resistant panel, virus K90E; blocks gp41 NHR-CHR 6-HB formation in [9] of 9.4 nM. Further, the IC50, inhibition of HIV-1 infection (p24 ELISA), T2635-resistant panel, virus Q66R; blocks gp41 NHR-CHR 6-HB formation in [10] is 2.8 nM. For the same substance, the IC50, inhibition of HIV-1 infection (p24 ELISA), T2635-resistant panel, virus Q79E/N126K; blocks gp41 NHR-CHR 6-HB formation in [11] was 5.2 nM. Also, the IC50, inhibition of HIV-1 infection (p24 ELISA), T2635-resistant panel, virus N113E; blocks gp41 NHR-CHR 6-HB formation in [12] is 2.3 nM. The substance further gave an IC50, inhibition of HIV-1 infection (p24 ELISA), T2635-resistant panel, virus K154Q; blocks gp41 NHR-CHR 6-HB formation in assay [13] of 7.4 nM. Further, the Tm of the 6-HB formed with N46 in assay [14] is 81 °C. For the same substance, in assay [15], the IC50, inhibition of HIV-1 infection (p24 ELISA), HP23-resistant panel, virus L34S/D36G/E49K/E136G; blocks gp41 NHR-CHR 6-HB formation was greater than 60 nM. The substance also had an IC50, inhibition of HIV-1 infection (p24 ELISA), HP23-resistant panel, virus D36G/E49K/N126K; blocks gp41 NHR-CHR 6-HB formation in assay [16] greater than 60 nM. This substance registered an IC50, inhibition of HIV-1 infection (p24 ELISA), T20-resistant panel, virus V38A; blocks gp41 NHR-CHR 6-HB formation in assay [17] of 2.1 nM. In assay [18], this substance came in with an IC50, inhibition of HIV-1 infection (p24 ELISA), HP23-resistant panel, virus E49K; blocks gp41 NHR-CHR 6-HB formation of 13.4 nM. In assay [19], this substance displayed an IC50, inhibition of HIV-1 infection (p24 ELISA), HP23-resistant panel, virus E49K/N126K; blocks gp41 NHR-CHR 6-HB formation of 53.8 nM. The substance further showed an IC50, inhibition of HIV-1 infection (p24 ELISA), HP23-resistant panel, virus wild-type; blocks gp41 NHR-CHR 6-HB formation in assay [20] of 3.3 nM. In assay [21], this substance had an IC50, inhibition of HIV-1 infection (p24 ELISA), T20-resistant panel, virus WT; blocks gp41 NHR-CHR 6-HB formation of 3.1 nM. The IC50, inhibition of HIV-1 infection (p24 ELISA), T20-resistant panel, virus V38E, N42S; blocks gp41 NHR-CHR 6-HB formation in assay [22] stood at 6.2 nM. For the same substance, the IC50, inhibition of HIV-1 infection (p24 ELISA), T20-resistant panel, virus V38A, N42D; blocks gp41 NHR-CHR 6-HB formation in assay [23] stood at 2.9 nM. In addition, in assay [24], the IC50, inhibition of HIV-1 infection (p24 ELISA), T20-resistant panel, virus V38A, N42T; blocks gp41 NHR-CHR 6-HB formation was 1.5 nM.

For the origin of these results see publication PMC6150406, “Adding an Artificial Tail—Anchor to a Peptide-Based HIV-1 Fusion Inhibitor for Improvement of Its Potency and Resistance Profile” (Molecules : A Journal of Synthetic Chemistry and Natural …, 2017).
